From the supplement of paper PMC9876800

Tested on: peptide library, one residue held at a place counted from the S/T acceptor
Assay: relative phosphorylation of the sub-library (ratio to the mean residue at this position); higher = residue favoured
Details: human
Method in brief: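 Purified recombinant kinases (human or orthologue constructs) were incubated in 384-well plates with biotinylated degenerate peptide sub-libraries, each fixing one residue at one position around a central Ser/Thr. Peptides were at 50 μM, with 50 μM ATP spiked with γ-32P-ATP, for 90 min under kinase-specific conditions. Spots on streptavidin membranes were phosphorimaged and quantified by densitometry. Relative sub-library phosphorylation is a ratio to the mean residue at that position.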

Chain of RIPK4, construct: aa1-300 (P57078 1-300, looked up): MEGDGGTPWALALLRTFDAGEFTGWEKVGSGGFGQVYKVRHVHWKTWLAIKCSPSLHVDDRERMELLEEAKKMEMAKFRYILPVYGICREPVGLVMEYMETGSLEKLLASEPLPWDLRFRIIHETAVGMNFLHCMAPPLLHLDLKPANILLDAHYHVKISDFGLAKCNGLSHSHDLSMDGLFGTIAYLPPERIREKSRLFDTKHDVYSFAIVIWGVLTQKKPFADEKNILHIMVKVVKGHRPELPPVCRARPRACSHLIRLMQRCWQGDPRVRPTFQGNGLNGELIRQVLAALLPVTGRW
Chain of PAK6, construct: aa382-end (Q9NQU5 382-681, looked up): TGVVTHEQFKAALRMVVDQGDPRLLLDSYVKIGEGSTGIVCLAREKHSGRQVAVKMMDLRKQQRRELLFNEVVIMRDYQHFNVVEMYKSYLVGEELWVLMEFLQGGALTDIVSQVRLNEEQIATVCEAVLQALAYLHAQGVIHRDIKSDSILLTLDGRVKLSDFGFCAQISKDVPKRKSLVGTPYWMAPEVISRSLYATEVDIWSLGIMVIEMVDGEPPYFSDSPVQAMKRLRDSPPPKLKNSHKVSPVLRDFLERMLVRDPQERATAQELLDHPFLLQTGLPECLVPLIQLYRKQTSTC

RIPK4, construct: aa1-300 (from UniProt P57078)
relative phosphorylation
Details	at +1	at +2	at +3	at +4	at -1	at -2	at -3	at -4	at -5
A fixed	0.786	0.77	0.723	0.883	0.722	0.944	1.01	0.988	1.04
D fixed	0.444	0.547	0.572	0.75	1.76	1.53	1.02	1.45	1.43
E fixed	0.458	0.509	0.485	0.618	0.809	1.36	0.853	0.96	0.926
F fixed	1.86	1.04	1.37	1.16	0.6	0.863	0.994	0.822	1.04
G fixed	1.04	0.738	0.909	0.918	0.585	1.33	0.969	1.07	0.944
H fixed	0.776	1.18	0.859	1.07	1.48	1.37	1.14	1.04	1.07
I fixed	1.77	0.843	1.78	1.05	0.841	0.635	0.848	0.861	0.876
K fixed	0.691	1.66	0.792	1.25	1.63	0.64	0.919	0.9	1.09
L fixed	1.25	0.978	1.5	1.01	0.858	0.628	0.941	0.819	0.926
M fixed	1.71	1.11	1.04	0.831	0.815	0.789	0.996	0.91	0.909
N fixed	0.665	0.943	0.725	0.726	1.52	1.24	0.837	1.26	0.941
P fixed	0.376	0.62	0.706	1.32	0.461	0.502	1.11	0.844	0.922
Q fixed	1.19	0.924	0.779	0.802	1.02	0.898	0.976	0.888	0.856
R fixed	1.11	2.28	0.932	1.29	1.33	0.986	1.43	0.936	1.03
V fixed	1.26	0.815	1.09	0.798	1.01	0.618	0.723	0.874	0.866
W fixed	0.781	0.988	1.45	1.41	0.59	1.06	1.24	1.39	1.24
Y fixed	0.836	1.07	1.3	1.13	0.963	1.6	0.998	0.977	0.898
pThr fixed	0.839	0.707	0.778	0.887	1.03	1.04	1.07	1.17	1.23
pTyr fixed	0.524	0.726	0.725	0.802	0.897	0.817	0.967	0.967	1.09

RPS6KA4, construct: Full length (from UniProt O75676)
relative phosphorylation
Details	at +1	at +2	at +3	at +4	at -1	at -2	at -3	at -4	at -5
A fixed	0.665	0.804	0.781	0.843	0.745	0.911	0.769	1.08	1.06
D fixed	0.621	1.61	1.12	1.43	0.996	0.411	0.319	0.715	0.699
E fixed	0.77	1.07	1.12	1.33	0.567	0.413	0.329	0.853	0.661
F fixed	1.3	0.921	1.08	0.864	0.749	0.749	0.472	0.868	1.01
G fixed	0.547	0.65	1.03	1.1	1.11	0.775	0.465	1.15	1.06
H fixed	1.21	1.7	1.3	1.35	1.04	0.924	0.817	1.17	1.2
I fixed	1.26	0.85	0.811	0.767	0.44	0.354	0.258	0.665	0.858
K fixed	0.634	0.72	0.71	0.934	1.41	1.2	0.915	1.32	1.25
L fixed	1	0.698	0.998	0.782	0.791	0.518	0.285	0.679	1
M fixed	1.27	0.909	1.04	0.867	1.04	0.629	0.373	0.84	0.857
N fixed	0.937	1.44	0.935	1.23	1.57	0.861	0.473	1.01	0.871
P fixed	0.345	0.5	0.942	1.09	1.3	0.429	0.64	1.01	0.887
Q fixed	1.1	0.873	0.949	1.25	1.19	0.885	0.642	1.09	0.831
R fixed	0.771	0.869	0.677	0.74	1.5	6.18	8.7	1.81	1.96
V fixed	1.24	0.807	0.726	0.639	0.51	0.354	0.247	0.583	0.773
W fixed	1.89	1.39	1.62	1.07	0.898	0.748	0.738	1.13	1.19
Y fixed	1.44	1.18	1.17	0.72	1.14	0.66	0.555	1.04	0.832
pThr fixed	1.11	1.18	1.15	1.83	0.415	0.419	0.515	0.698	0.644
pTyr fixed	1.57	1.17	1.47	1.39	1.27	0.502	0.491	0.81	0.804

MAP3K9, construct: aa132-413 (from UniProt P80192)
relative phosphorylation
Details	at +1	at +2	at +3	at +4	at -1	at -2	at -3	at -4	at -5
A fixed	0.832	0.66	0.89	0.949	0.791	0.914	1.07	1.13	1.12
D fixed	0.308	0.362	0.612	0.652	1.02	1.23	1.16	1.57	1.45
E fixed	0.492	0.46	0.619	0.719	0.854	1.03	1.38	1.45	1.3
F fixed	1.61	0.594	1.44	0.823	1.19	1.33	1.14	0.824	0.978
G fixed	0.686	0.727	0.991	1.02	0.525	0.932	1.21	1.18	1.13
H fixed	1.23	1.66	1.28	0.995	1.3	1.13	1.1	0.955	0.984
I fixed	1.3	0.627	0.865	0.842	0.899	0.715	0.785	0.734	0.887
K fixed	1.19	2.81	1.59	1.94	1.07	0.523	0.688	0.998	0.882
L fixed	0.969	0.598	1.11	0.841	1.08	0.824	0.792	0.759	0.737
M fixed	1.28	0.522	0.995	0.952	1.25	0.931	0.863	0.929	0.827
N fixed	0.689	0.836	0.797	0.946	1.1	1.07	1.04	0.951	1.08
P fixed	0.208	0.36	0.501	1.04	0.775	1.57	1.15	0.99	0.9
Q fixed	1.2	0.907	0.741	0.943	0.924	1.08	0.925	0.934	0.901
R fixed	1.55	3.45	1.47	1.8	1.26	0.817	0.946	1.14	1.05
V fixed	1.49	0.602	0.796	0.767	0.873	0.701	0.798	0.83	0.908
W fixed	1.19	0.687	1.19	1.05	0.969	1.13	0.881	0.892	0.907
Y fixed	0.772	1.13	1.12	0.72	1.13	1.07	1.08	0.745	0.958
pThr fixed	0.825	0.703	0.677	1.01	0.976	1.23	1.83	1.55	1.57
pTyr fixed	0.628	0.376	0.709	0.622	1.29	1.19	1.54	1.02	1.54

PAK6, construct: aa382-end (from UniProt Q9NQU5)
relative phosphorylation
Details	at +1	at +2	at +3	at +4	at -1	at -2	at -3	at -4	at -5
A fixed	0.845	5.4	1.16	1.06	0.921	0.523	0.766	1.19	1.21
D fixed	0.225	0.407	0.707	0.827	0.361	0.117	0.216	0.554	0.759
E fixed	0.233	0.264	1.08	0.69	0.256	0.109	0.18	0.635	0.568
F fixed	1.37	0.835	0.986	0.672	1.12	0.626	0.638	0.778	0.855
G fixed	0.376	0.695	1.18	1.29	0.619	0.31	0.553	1.24	1.19
H fixed	0.97	0.78	1.26	1.02	1.19	1.1	0.753	0.941	0.884
I fixed	1.56	0.752	0.887	0.623	1.14	0.767	1.11	1.33	1.41
K fixed	0.887	0.594	0.818	1.31	1.76	0.97	4.26	1.63	1.59
L fixed	1.63	0.798	1.11	0.609	1.29	0.662	0.802	0.903	1.15
M fixed	1.44	0.706	1.05	0.786	1.09	0.461	0.655	0.943	0.875
N fixed	0.49	0.704	0.72	1.03	0.917	0.276	0.479	0.792	0.873
P fixed	0.313	0.643	1.3	1.96	0.304	0.501	0.561	0.968	0.892
Q fixed	0.693	0.526	0.909	1.15	0.78	0.456	0.674	0.81	0.784
R fixed	1.07	0.67	0.974	1.57	2.53	8.47	3.53	1.58	1.53
V fixed	1.61	1	0.897	0.753	0.627	0.5	0.742	1.19	1.02
W fixed	1.86	0.891	0.905	0.853	0.9	0.409	0.56	0.762	0.691
Y fixed	1.42	1.33	1.07	0.807	1.2	0.737	0.525	0.755	0.731
pThr fixed	0.461	0.494	0.647	0.905	0.272	0.192	0.315	0.558	0.665
pTyr fixed	0.684	0.465	0.993	0.687	0.358	0.219	0.379	0.61	0.496
